These results are taken from patent US20140087995A1 (published 2014).

One may read the IC50 as the concentration at which inhibition is half-maximal.

Assay [1] addresses T1, rat calcitonin receptor (rat, UniProt P32214 25-516).
T1 construct: whole, on cells; Used as membranes prepared from the transfected cells; also called rCTR; rCT
T1 sequence (looked up): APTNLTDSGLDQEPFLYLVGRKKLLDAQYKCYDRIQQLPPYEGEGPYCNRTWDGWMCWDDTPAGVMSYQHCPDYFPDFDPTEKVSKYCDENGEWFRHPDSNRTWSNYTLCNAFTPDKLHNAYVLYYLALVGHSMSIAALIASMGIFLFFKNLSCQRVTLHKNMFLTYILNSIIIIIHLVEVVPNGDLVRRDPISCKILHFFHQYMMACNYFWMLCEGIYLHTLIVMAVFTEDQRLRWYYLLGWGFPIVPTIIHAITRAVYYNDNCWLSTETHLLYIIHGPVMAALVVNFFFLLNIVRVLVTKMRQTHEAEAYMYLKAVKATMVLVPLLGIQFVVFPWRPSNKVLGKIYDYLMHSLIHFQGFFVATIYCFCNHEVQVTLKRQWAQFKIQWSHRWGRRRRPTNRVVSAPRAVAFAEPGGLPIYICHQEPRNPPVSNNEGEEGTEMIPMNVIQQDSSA
In words: SPA competition with 125I-calcitonin, membranes with rat calcitonin receptor (Assay VIII).

Assay [2] has as its target T1, rat calcitonin receptor. In words: ratio of binding IC50 at rat calcitonin receptor to IC50 at rat amylin receptor (reference).
The target in assay [3] is T2, human calcitonin receptor (human, UniProt P30988 25-474).
T2 construct: whole, on cells; Used as membranes prepared from the transfected cells; also called hCTR; hCT
T2 sequence (looked up): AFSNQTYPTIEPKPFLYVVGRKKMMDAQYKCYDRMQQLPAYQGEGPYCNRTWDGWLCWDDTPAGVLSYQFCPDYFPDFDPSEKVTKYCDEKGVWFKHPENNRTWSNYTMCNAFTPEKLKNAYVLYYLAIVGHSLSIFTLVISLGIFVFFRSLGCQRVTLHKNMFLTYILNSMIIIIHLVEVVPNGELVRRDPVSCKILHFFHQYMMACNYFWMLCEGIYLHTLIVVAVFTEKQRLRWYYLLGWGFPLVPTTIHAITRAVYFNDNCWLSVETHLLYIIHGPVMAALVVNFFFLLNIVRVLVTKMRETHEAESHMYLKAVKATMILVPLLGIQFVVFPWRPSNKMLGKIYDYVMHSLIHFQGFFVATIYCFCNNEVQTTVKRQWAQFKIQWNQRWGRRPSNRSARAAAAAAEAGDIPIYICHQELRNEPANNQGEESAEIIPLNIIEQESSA
The assay is described as follows: ratio of binding IC50 at human calcitonin receptor to IC50 at human amylin receptor (reference). A digest of the protocol:
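Competition binding by SPA with cell membranes (35 ng/μL) and SPA beads in 50 mM Hepes pH 7.4 with 1 mM CaCl2, 5 mM MgCl2, 0.1% OA and 0.02% Tween20. Incubated 120 min at 25 °C with shaking, then counted.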

Numbered stars: 1 amine (or outer) side, 2 acyl side, 3 side chain; on linkers, the order of the positions; unused ones are H or OH. Bridge positions count the residues as written; N and C are the ends. Side chains are listed from the residue outwards. Ends that are not written are not given here. * marks the point of attachment. C20 diacid = O=C(O)CCCCCCCCCCCCCCCCCCC(=O)*; γGlu = O=C(O)[C@H](CCC(=O)[*:2])N[*:1]

B1: N^ε1-[(4S)-4-carboxy-4-(19-carboxynonadecanoylamino)butanoyl]-[His14,Arg17,Pro21,Pro27,His35]-h-amylin (peptide)
peptide: K([γGlu-C20 diacid])CNTATCATQRLAHFLRHSSPNFGAIPSSTNVGSHTY-NH2
modifications: disulfide 2-7; N-terminus assumed
SMILES: CC[C@H](C)[C@H](NC(=O)[C@H](C)NC(=O)CNC(=O)[C@H](Cc1ccccc1)NC(=O)[C@H](CC(N)=O)NC(=O)[C@@H]1CCCN1C(=O)[C@H](CO)NC(=O)[C@H](CO)NC(=O)[C@H](Cc1c[nH]cn1)NC(=O)[C@H](CCCNC(=N)N)NC(=O)[C@H](CC(C)C)NC(=O)[C@H](Cc1ccccc1)NC(=O)[C@H](Cc1c[nH]cn1)NC(=O)[C@H](C)NC(=O)[C@H](CC(C)C)NC(=O)[C@H](CCCNC(=N)N)NC(=O)[C@H](CCC(N)=O)NC(=O)[C@@H](NC(=O)[C@H](C)NC(=O)[C@@H]1CSSC[C@H](NC(=O)[C@@H](N)CCCCNC(=O)CC[C@H](NC(=O)CCCCCCCCCCCCCCCCCCC(=O)O)C(=O)O)C(=O)N[C@@H](CC(N)=O)C(=O)N[C@@H]([C@@H](C)O)C(=O)N[C@@H](C)C(=O)N[C@@H]([C@@H](C)O)C(=O)N1)[C@@H](C)O)C(=O)N1CCC[C@H]1C(=O)N[C@@H](CO)C(=O)N[C@@H](CO)C(=O)N[C@H](C(=O)N[C@@H](CC(N)=O)C(=O)N[C@H](C(=O)NCC(=O)N[C@@H](CO)C(=O)N[C@@H](Cc1c[nH]cn1)C(=O)N[C@H](C(=O)N[C@@H](Cc1ccc(O)cc1)C(N)=O)[C@@H](C)O)C(C)C)[C@@H](C)O
notes: Analogue of human amylin; disulfide and C-terminal amide as told for h-amylin; also called compound 66
B1: the half-inhibitory concentration (IC50) with rat calcitonin receptor [1] worked out at 20.8 nM. In addition, the “Ratio rCT/rAmylin binding” value with rat calcitonin receptor [2] is 35.8. For the same molecule, in assay [3], the “Ratio hCT/hAmylin binding” value turned out to be 45.5.

B2: N^ε1-[(4S)-4-carboxy-4-[[(4S)-4-carboxy-4-(19-carboxynonadecanoylamino)butanoyl]amino]butanoyl]-[Glu14,Arg17,Pro21,Pro27,Arg34]-h-amylin (peptide)
peptide: K([γGlu-γGlu-C20 diacid])CNTATCATQRLAEFLRHSSPNFGAIPSSTNVGRNTY-NH2
modifications: disulfide 2-7; N-terminus assumed
SMILES: CC[C@H](C)[C@H](NC(=O)[C@H](C)NC(=O)CNC(=O)[C@H](Cc1ccccc1)NC(=O)[C@H](CC(N)=O)NC(=O)[C@@H]1CCCN1C(=O)[C@H](CO)NC(=O)[C@H](CO)NC(=O)[C@H](Cc1c[nH]cn1)NC(=O)[C@H](CCCNC(=N)N)NC(=O)[C@H](CC(C)C)NC(=O)[C@H](Cc1ccccc1)NC(=O)[C@H](CCC(=O)O)NC(=O)[C@H](C)NC(=O)[C@H](CC(C)C)NC(=O)[C@H](CCCNC(=N)N)NC(=O)[C@H](CCC(N)=O)NC(=O)[C@@H](NC(=O)[C@H](C)NC(=O)[C@@H]1CSSC[C@H](NC(=O)[C@@H](N)CCCCNC(=O)CC[C@H](NC(=O)CC[C@H](NC(=O)CCCCCCCCCCCCCCCCCCC(=O)O)C(=O)O)C(=O)O)C(=O)N[C@@H](CC(N)=O)C(=O)N[C@@H]([C@@H](C)O)C(=O)N[C@@H](C)C(=O)N[C@@H]([C@@H](C)O)C(=O)N1)[C@@H](C)O)C(=O)N1CCC[C@H]1C(=O)N[C@@H](CO)C(=O)N[C@@H](CO)C(=O)N[C@H](C(=O)N[C@@H](CC(N)=O)C(=O)N[C@H](C(=O)NCC(=O)N[C@@H](CCCNC(=N)N)C(=O)N[C@@H](CC(N)=O)C(=O)N[C@H](C(=O)N[C@@H](Cc1ccc(O)cc1)C(N)=O)[C@@H](C)O)C(C)C)[C@@H](C)O
notes: Analogue of human amylin; disulfide and C-terminal amide as told for h-amylin; also called compound 88
In the case of B2, the IC50 with rat calcitonin receptor [1] came out at 196 nM. Moreover, the “Ratio rCT/rAmylin binding” value with rat calcitonin receptor [2] is 84.9. Moreover, the “Ratio hCT/hAmylin binding” value in assay [3] was 46.5.

B3: N^ε1-[(4S)-4-carboxy-4-[[(4S)-4-carboxy-4-(19-carboxynonadecanoylamino)butanoyl]amino]butanoyl]-[Arg17,Pro21,Pro27,His34]-h-amylin (peptide)
peptide: K([γGlu-γGlu-C20 diacid])CNTATCATQRLANFLRHSSPNFGAIPSSTNVGHNTY-NH2
modifications: disulfide 2-7; N-terminus assumed
SMILES: CC[C@H](C)[C@H](NC(=O)[C@H](C)NC(=O)CNC(=O)[C@H](Cc1ccccc1)NC(=O)[C@H](CC(N)=O)NC(=O)[C@@H]1CCCN1C(=O)[C@H](CO)NC(=O)[C@H](CO)NC(=O)[C@H](Cc1c[nH]cn1)NC(=O)[C@H](CCCNC(=N)N)NC(=O)[C@H](CC(C)C)NC(=O)[C@H](Cc1ccccc1)NC(=O)[C@H](CC(N)=O)NC(=O)[C@H](C)NC(=O)[C@H](CC(C)C)NC(=O)[C@H](CCCNC(=N)N)NC(=O)[C@H](CCC(N)=O)NC(=O)[C@@H](NC(=O)[C@H](C)NC(=O)[C@@H]1CSSC[C@H](NC(=O)[C@@H](N)CCCCNC(=O)CC[C@H](NC(=O)CC[C@H](NC(=O)CCCCCCCCCCCCCCCCCCC(=O)O)C(=O)O)C(=O)O)C(=O)N[C@@H](CC(N)=O)C(=O)N[C@@H]([C@@H](C)O)C(=O)N[C@@H](C)C(=O)N[C@@H]([C@@H](C)O)C(=O)N1)[C@@H](C)O)C(=O)N1CCC[C@H]1C(=O)N[C@@H](CO)C(=O)N[C@@H](CO)C(=O)N[C@H](C(=O)N[C@@H](CC(N)=O)C(=O)N[C@H](C(=O)NCC(=O)N[C@@H](Cc1c[nH]cn1)C(=O)N[C@@H](CC(N)=O)C(=O)N[C@H](C(=O)N[C@@H](Cc1ccc(O)cc1)C(N)=O)[C@@H](C)O)C(C)C)[C@@H](C)O
notes: Analogue of human amylin; disulfide and C-terminal amide as told for h-amylin; also called compound 86
As for B3, the IC50 in the assay with rat calcitonin receptor [1] came to 352 nM. Besides, the “Ratio rCT/rAmylin binding” value with rat calcitonin receptor [2] stood at 126. In addition, the “Ratio hCT/hAmylin binding” value in assay [3] came out at 159.

B4: N^ε1-[(4S)-4-carboxy-4-[[(4S)-4-carboxy-4-(19-carboxynonadecanoylamino)butanoyl]amino]butanoyl]-[Glu14,Arg17,Pro21,Pro27,His34]-h-amylin (peptide)
peptide: K([γGlu-γGlu-C20 diacid])CNTATCATQRLAEFLRHSSPNFGAIPSSTNVGHNTY-NH2
modifications: disulfide 2-7; N-terminus assumed
SMILES: CC[C@H](C)[C@H](NC(=O)[C@H](C)NC(=O)CNC(=O)[C@H](Cc1ccccc1)NC(=O)[C@H](CC(N)=O)NC(=O)[C@@H]1CCCN1C(=O)[C@H](CO)NC(=O)[C@H](CO)NC(=O)[C@H](Cc1c[nH]cn1)NC(=O)[C@H](CCCNC(=N)N)NC(=O)[C@H](CC(C)C)NC(=O)[C@H](Cc1ccccc1)NC(=O)[C@H](CCC(=O)O)NC(=O)[C@H](C)NC(=O)[C@H](CC(C)C)NC(=O)[C@H](CCCNC(=N)N)NC(=O)[C@H](CCC(N)=O)NC(=O)[C@@H](NC(=O)[C@H](C)NC(=O)[C@@H]1CSSC[C@H](NC(=O)[C@@H](N)CCCCNC(=O)CC[C@H](NC(=O)CC[C@H](NC(=O)CCCCCCCCCCCCCCCCCCC(=O)O)C(=O)O)C(=O)O)C(=O)N[C@@H](CC(N)=O)C(=O)N[C@@H]([C@@H](C)O)C(=O)N[C@@H](C)C(=O)N[C@@H]([C@@H](C)O)C(=O)N1)[C@@H](C)O)C(=O)N1CCC[C@H]1C(=O)N[C@@H](CO)C(=O)N[C@@H](CO)C(=O)N[C@H](C(=O)N[C@@H](CC(N)=O)C(=O)N[C@H](C(=O)NCC(=O)N[C@@H](Cc1c[nH]cn1)C(=O)N[C@@H](CC(N)=O)C(=O)N[C@H](C(=O)N[C@@H](Cc1ccc(O)cc1)C(N)=O)[C@@H](C)O)C(C)C)[C@@H](C)O
notes: Analogue of human amylin; disulfide and C-terminal amide as told for h-amylin; also called compound 87
Regarding B4, the IC50 with rat calcitonin receptor [1] was 94.5 nM. Also, the “Ratio rCT/rAmylin binding” value in the assay with rat calcitonin receptor [2] was 45.6. The “Ratio hCT/hAmylin binding” value in assay [3] was 35.6.

B5: N^ε1-[(4S)-4-carboxy-4-[[(4S)-4-carboxy-4-(19-carboxynonadecanoylamino)butanoyl]amino]butanoyl]-[Glu14,Arg17,Pro21,Pro27,Arg35]-h-amylin (peptide)
peptide: K([γGlu-γGlu-C20 diacid])CNTATCATQRLAEFLRHSSPNFGAIPSSTNVGSRTY-NH2
modifications: disulfide 2-7; N-terminus assumed
SMILES: CC[C@H](C)[C@H](NC(=O)[C@H](C)NC(=O)CNC(=O)[C@H](Cc1ccccc1)NC(=O)[C@H](CC(N)=O)NC(=O)[C@@H]1CCCN1C(=O)[C@H](CO)NC(=O)[C@H](CO)NC(=O)[C@H](Cc1c[nH]cn1)NC(=O)[C@H](CCCNC(=N)N)NC(=O)[C@H](CC(C)C)NC(=O)[C@H](Cc1ccccc1)NC(=O)[C@H](CCC(=O)O)NC(=O)[C@H](C)NC(=O)[C@H](CC(C)C)NC(=O)[C@H](CCCNC(=N)N)NC(=O)[C@H](CCC(N)=O)NC(=O)[C@@H](NC(=O)[C@H](C)NC(=O)[C@@H]1CSSC[C@H](NC(=O)[C@@H](N)CCCCNC(=O)CC[C@H](NC(=O)CC[C@H](NC(=O)CCCCCCCCCCCCCCCCCCC(=O)O)C(=O)O)C(=O)O)C(=O)N[C@@H](CC(N)=O)C(=O)N[C@@H]([C@@H](C)O)C(=O)N[C@@H](C)C(=O)N[C@@H]([C@@H](C)O)C(=O)N1)[C@@H](C)O)C(=O)N1CCC[C@H]1C(=O)N[C@@H](CO)C(=O)N[C@@H](CO)C(=O)N[C@H](C(=O)N[C@@H](CC(N)=O)C(=O)N[C@H](C(=O)NCC(=O)N[C@@H](CO)C(=O)N[C@@H](CCCNC(=N)N)C(=O)N[C@H](C(=O)N[C@@H](Cc1ccc(O)cc1)C(N)=O)[C@@H](C)O)C(C)C)[C@@H](C)O
notes: Analogue of human amylin; disulfide and C-terminal amide as told for h-amylin; also called compound 89
Turning to B5, the IC50 in the assay with rat calcitonin receptor [1] worked out at 115 nM. For the same molecule, in the assay with rat calcitonin receptor [2], the “Ratio rCT/rAmylin binding” value was determined as 48.8. Moreover, in assay [3], the “Ratio hCT/hAmylin binding” value was 28.
